Usually stoichiometry N stands for a count of units in the complex or per binding partner.

This is an account of results in PMC4060006, “SM proteins Sly1 and Vps33 co-assemble with Sec17 and SNARE complexes to oppose SNARE disassembly by Sec18” (eLife, 2014).

Common to all, as to settings: both partners purified
Test [1] deals with T1, Sec17–vacuole SNARE complex (Sec17 bound to the vacuole SNARE complex on Vam3-GST) (S. cerevisiae, UniProt Q12241 1-264; Q04338 1-194; P32912 190-316; Q12255 1-231; P32602 1-292).
T1 construct: Vam3, Qa-SNARE, S. cerevisiae, aa1-264; Vti1, Qb-SNARE, S. cerevisiae, aa1-194; Vam7, Qc-SNARE, S. cerevisiae, SNARE domain aa190-316; Nyv1, R-SNARE, S. cerevisiae, aa1-231; Sec17, S. cerevisiae; in most experiments Sec17 and the SM were added together to the immobilised SNARE complex; also called SNARE–Sec17 complex; Sec17–SNARE complex; source: assembled …
T1 sequence (Q12241 1-264, chain 1 of 4): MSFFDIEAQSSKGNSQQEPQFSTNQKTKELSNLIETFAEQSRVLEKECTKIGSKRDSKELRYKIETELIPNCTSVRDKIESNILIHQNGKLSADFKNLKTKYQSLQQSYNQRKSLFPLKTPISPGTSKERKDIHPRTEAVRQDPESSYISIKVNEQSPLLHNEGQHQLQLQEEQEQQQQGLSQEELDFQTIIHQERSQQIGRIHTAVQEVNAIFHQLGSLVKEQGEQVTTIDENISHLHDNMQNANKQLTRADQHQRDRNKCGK
T1 sequence (Q04338 1-194, chain 2 of 4): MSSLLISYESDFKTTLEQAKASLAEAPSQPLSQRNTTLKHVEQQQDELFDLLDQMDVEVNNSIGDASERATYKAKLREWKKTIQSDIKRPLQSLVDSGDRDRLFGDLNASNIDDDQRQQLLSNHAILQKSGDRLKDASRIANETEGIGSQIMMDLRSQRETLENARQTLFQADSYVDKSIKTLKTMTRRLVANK
T1 sequence (P32912 190-316, chain 3 of 4): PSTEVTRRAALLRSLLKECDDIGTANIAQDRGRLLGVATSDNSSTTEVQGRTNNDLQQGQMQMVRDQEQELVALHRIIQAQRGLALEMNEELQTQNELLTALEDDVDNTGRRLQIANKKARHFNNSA
T1 sequence (Q12255 1-231, chain 4 of 4): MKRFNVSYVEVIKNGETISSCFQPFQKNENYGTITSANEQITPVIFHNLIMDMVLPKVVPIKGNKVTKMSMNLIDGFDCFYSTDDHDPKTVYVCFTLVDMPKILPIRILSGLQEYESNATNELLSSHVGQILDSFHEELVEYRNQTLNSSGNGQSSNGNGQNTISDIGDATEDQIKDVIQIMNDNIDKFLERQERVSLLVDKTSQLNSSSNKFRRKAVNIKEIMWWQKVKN
Description: pull-down; stoichiometry: complexes assembled on immobilised SNARE complex under saturation binding conditions; SDS-PAGE, SYPRO Ruby, band intensities against standard curves of the purified proteins; apparent.

Test [2] addresses T1, Sec17–vacuole SNARE complex (Sec17 …). Briefly: pull-down; quantitative: immobilised SNARE complex, SM concentration varied, with or without Sec17, 30°C; SYPRO Ruby with standard curves; fractional saturation against free SM, one-site model; apparent (Kdobs), non-equilibrium measurements.
For test [3], the target named is T2, vacuole SNARE complex assembled on immobilized Vam3-GST (S. cerevisiae, UniProt Q12241 1-264; Q04338 1-194; P32912 190-316; Q12255 1-231).
T2 construct: Vam3, Qa-SNARE, S. cerevisiae, aa1-264; Vti1, Qb-SNARE, S. cerevisiae, aa1-194; Vam7, Qc-SNARE, S. cerevisiae, SNARE domain aa190-316; Nyv1, R-SNARE, S. cerevisiae, aa1-231; quaternary SNARE bundle, no membranes; also called vacuolar SNARE complex; SNARE bundle; source: assembled on glutathione sepharose from proteins made in E. coli; not shown: GST, C-terminal, …
T2 sequence (Q12241 1-264, chain 1 of 4): as the sequence (Q12241 1-264, chain 1 of 4) above
T2 sequence (Q04338 1-194, chain 2 of 4): as the sequence (Q04338 1-194, chain 2 of 4) above
T2 sequence (P32912 190-316, chain 3 of 4): as the sequence (P32912 190-316, chain 3 of 4) above
T2 sequence (Q12255 1-231, chain 4 of 4): as the sequence (Q12255 1-231, chain 4 of 4) above
Described as above.

Test [4] deals with T2, vacuole SNARE complex assembled on …. Briefly: pull-down; stoichiometry: complexes assembled on immobilised SNARE complex under saturation binding conditions; SDS-PAGE, SYPRO Ruby, band intensities against standard curves of the purified proteins; apparent.
Test [5] concerns the target T3, Golgi SNARE complex assembled on immobilized GST-Sed5 SNARE domain (S. cerevisiae, UniProt Q01590 170-319; P25385 1-222; P22804 1-123; P22214 1-188).
T3 construct: Sed5, Qa-SNARE, S. cerevisiae, aa170-319; Bos1, Qb-SNARE, S. cerevisiae, aa1-222; Bet1, Qc-SNARE, S. cerevisiae, aa1-123; Sec22, R-SNARE, S. cerevisiae, aa1-188; quaternary SNARE bundle, no membranes; also called Golgi SNARE bundle; S.C; source: assembled on glutathione sepharose from proteins made in E. coli; not shown: GST, N-terminal, kept; His6, N-terminal, …
T3 sequence (looked up) 1: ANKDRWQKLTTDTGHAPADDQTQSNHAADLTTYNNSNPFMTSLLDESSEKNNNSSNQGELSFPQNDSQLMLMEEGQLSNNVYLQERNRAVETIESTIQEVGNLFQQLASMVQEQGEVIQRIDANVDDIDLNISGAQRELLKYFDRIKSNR
T3 sequence (looked up) 2: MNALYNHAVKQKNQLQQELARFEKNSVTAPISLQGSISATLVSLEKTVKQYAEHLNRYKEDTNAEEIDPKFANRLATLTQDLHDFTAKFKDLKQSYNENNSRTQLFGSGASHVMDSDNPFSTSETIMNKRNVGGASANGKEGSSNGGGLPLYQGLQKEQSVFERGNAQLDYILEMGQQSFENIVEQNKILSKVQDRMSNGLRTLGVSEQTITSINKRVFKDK
T3 sequence (looked up) 3: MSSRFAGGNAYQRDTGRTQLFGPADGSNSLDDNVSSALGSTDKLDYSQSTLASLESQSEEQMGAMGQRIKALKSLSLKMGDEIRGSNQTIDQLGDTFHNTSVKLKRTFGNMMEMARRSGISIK
T3 sequence (looked up) 4: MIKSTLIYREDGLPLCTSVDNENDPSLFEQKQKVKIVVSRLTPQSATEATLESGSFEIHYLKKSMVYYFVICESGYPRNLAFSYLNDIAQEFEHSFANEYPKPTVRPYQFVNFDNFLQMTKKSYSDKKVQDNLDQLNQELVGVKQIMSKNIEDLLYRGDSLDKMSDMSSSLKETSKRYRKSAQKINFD
Described as above.

B1: Vps33 (natural protein, S. cerevisiae, UniProt P20795 1-691, looked up)
chain: MNRFWNTKKFSLTNADGLCATLNEISQNDEVLVVQPSVLPVLNSLLTFQDLTQSTPVRKITLLDDQLSDDLPSALGSVPQMDLIFLIDVRTSLRLPPQLLDAAQKHNLSSLHIIYCRWKPSFQNTLEDTEQWQKDGFDLNSKKTHFPNVIESQLKELSNEYTLYPWDLLPFPQIDENVLLTHSLYNMENVNMYYPNLRSLQSATESILVDDMVNSLQSLIFETNSIITNVVSIGNLSKRCSHLLKKRIDEHQTENDLFIKGTLYGERTNCGLEMDLIILERNTDPITPLLTQLTYAGILDDLYEFNSGIKIKEKDMNFNYKEDKIWNDLKFLNFGSIGPQLNKLAKELQTQYDTRHKAESVHEIKEFVDSLGSLQQRQAFLKNHTTLSSDVLKVVETEEYGSFNKILELELEILMGNTLNNDIEDIILELQYQYEVDQKKILRLICLLSLCKNSLREKDYEYLRTFMIDSWGIEKCFQLESLAELGFFTSKTGKTDLHITTSKSTRLQKEYRYISQWFNTVPIEDEHAADKITNENDDFSEATFAYSGVVPLTMRLVQMLYDRSILFHNYSSQQPFILSREPRVSQTEDLIEQLYGDSHAIEESIWVPGTITKKINASIKSNNRRSIDGSNGTFHAAEDIALVVFLGGVTMGEIAIMKHLQKILGKKGINKRFIIIADGLINGTRIMNSIS
notes: Vps33, SM protein of the vacuole, S. cerevisiae; also called vacuole SM protein; late endolysosomal SM; source: insect cells, Baculovirus system, purified
With B1, in test [1], the “stoichiometry N” value turned out to be 1 Vps33 per SNARE complex. The Kd in test [2] was 0.3 ± 0.01 µM; in test [3] it was 1.6 ± 0.1 µM.

B2: Sec17 (natural protein, S. cerevisiae, UniProt P32602 1-292, looked up)
chain: MSDPVELLKRAEKKGVPSSGFMKLFSGSDSYKFEEAADLCVQAATIYRLRKELNLAGDSFLKAADYQKKAGNEDEAGNTYVEAYKCFKSGGNSVNAVDSLENAIQIFTHRGQFRRGANFKFELGEILENDLHDYAKAIDCYELAGEWYAQDQSVALSNKCFIKCADLKALDGQYIEASDIYSKLIKSSMGNRLSQWSLKDYFLKKGLCQLAATDAVAAARTLQEGQSEDPNFADSRESNFLKSLIDAVNEGDSEQLSEHCKEFDNFMRLDKWKITILNKIKESIQQQEDDLL
notes: Sec17, S. cerevisiae; construct CBD-(intein)-Sec17 in pTYB12; an intein tag is as a rule cut off during purification; also called α-SNAP homolog; Sec18 adapter; source: E. coli (pRIL plasmid), purified
With B2, the “stoichiometry N” value in test [4] and in test [5] was 3 Sec17 per SNARE complex throughout.
